The results in this text go back to PMC12996321.

Data set [1] concerns the target recombinant human histone octamer assembled into mononucleosomes on 250 bp 601 Widom DNA (human) (UniProt Q71DI3). Put plainly: single-molecule TIRF colocalisation.
Data set [2] deals with Halo-Sox2 (UniProt P48432 1-319). Briefly: single-molecule TIRF.
Sequence of Halo-Sox2 (P48432 whole entry): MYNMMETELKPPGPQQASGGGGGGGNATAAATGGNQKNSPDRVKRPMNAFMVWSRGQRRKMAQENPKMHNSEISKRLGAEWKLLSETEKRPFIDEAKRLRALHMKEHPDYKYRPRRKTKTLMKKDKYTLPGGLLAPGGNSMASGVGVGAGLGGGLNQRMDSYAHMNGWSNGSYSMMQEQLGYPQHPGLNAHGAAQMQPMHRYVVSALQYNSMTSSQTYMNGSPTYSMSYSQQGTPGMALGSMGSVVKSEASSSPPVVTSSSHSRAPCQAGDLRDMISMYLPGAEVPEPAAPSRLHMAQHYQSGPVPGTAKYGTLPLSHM

On to “Halo-Sox2 (recombinant, JF549-labelled) (from UniProt P48432 1-319) (natural protein)”, for which the residence time tau2 on MN-6 (state attributed to TF-histone interactions) in data set [1] came out at 3.4 s.

B1: Sdna3 DNA+ 50 bp (dsDNA)
DNA 1: AGCACCGCTTAAACGCACGTACGCTTTGTTCCCCGCGTTTTAACCGCCAA
DNA 2: TTGGCGGTTAAAACGCGGGGAACAAAGCGTACGTGCGTTTAAGCGGTGCT
As for B1, the binding result in data set [2] is reported as “binds”.
